Our source for the Kd values is PMC1894825.

The data set deals with Lsr2 (Mycobacterium tuberculosis H37Rv). Put plainly: EMSA. Background: Mobility shift assays separate free from complexed probe on a gel.

The term Kd denotes the concentration at which binding is half-saturated. Lower therefore signals a tighter complex. 16S rRNA gene 200-bp amplicon: the Kd turned out to be 1000 nM.

PiniBAC 227-bp amplicon yielded a Kd of 1000 nM.
